Measured values published in article PMC4237994.

T1: Isl-1-Myc (UniProt P61372 1-349)
T1 sequence: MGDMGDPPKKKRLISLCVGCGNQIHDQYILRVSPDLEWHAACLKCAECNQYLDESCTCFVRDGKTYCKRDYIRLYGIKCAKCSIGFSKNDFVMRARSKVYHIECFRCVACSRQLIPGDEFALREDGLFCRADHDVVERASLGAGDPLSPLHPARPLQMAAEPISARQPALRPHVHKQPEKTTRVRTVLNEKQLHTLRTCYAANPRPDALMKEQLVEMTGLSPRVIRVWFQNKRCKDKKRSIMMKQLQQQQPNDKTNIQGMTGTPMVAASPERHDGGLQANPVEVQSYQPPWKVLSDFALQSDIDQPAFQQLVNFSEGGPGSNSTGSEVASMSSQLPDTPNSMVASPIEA

B1: Pdx1 Area II-3 (dsDNA)
DNA 1: AATGCATGCAATTAGACCAGAAGTGCTAA
DNA 2: TTAGCACTTCTGGTCTAATTGCATGCATT
B2: Pdx1 Area IV-4 (dsDNA)
DNA 1: TTATTGCCTGCCTTTAATTGTACTTAT
DNA 2: ATAAGTACAATTAAAGGCAGGCAATAA
B3: Pdx1 Area I-4 (dsDNA)
DNA 1: GTATCACCCATAATGGATTTAGCCACCT
DNA 2: AGGTGGCTAAATCCATTATGGGTGATAC

These binders were tested against T1, Isl-1-Myc (assay: competition).

Binding result, binds:
B1
B2
B3
